Biological target: TRAF6 (human) (UniProt Q9Y4K3)
Experiment: cell-based or functional assay

Sequence of UniProt Q9Y4K3 (Q9Y4K3 whole entry): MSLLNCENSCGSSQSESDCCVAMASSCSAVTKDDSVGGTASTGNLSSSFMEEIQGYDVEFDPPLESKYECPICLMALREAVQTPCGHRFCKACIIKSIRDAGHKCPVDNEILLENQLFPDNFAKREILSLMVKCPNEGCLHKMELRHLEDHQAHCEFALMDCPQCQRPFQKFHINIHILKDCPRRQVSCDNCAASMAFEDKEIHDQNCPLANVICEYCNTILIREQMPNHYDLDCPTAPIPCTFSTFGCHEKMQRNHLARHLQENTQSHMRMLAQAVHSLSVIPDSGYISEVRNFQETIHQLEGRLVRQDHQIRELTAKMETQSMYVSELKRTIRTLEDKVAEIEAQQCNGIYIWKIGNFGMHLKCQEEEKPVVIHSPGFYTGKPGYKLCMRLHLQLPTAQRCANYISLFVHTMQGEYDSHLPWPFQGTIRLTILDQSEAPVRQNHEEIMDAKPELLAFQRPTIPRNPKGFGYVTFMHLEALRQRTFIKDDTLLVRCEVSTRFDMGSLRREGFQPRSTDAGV

Substance	activity of MALT1 detected by biotinylated MALT1 activity-based probe (bio-MALT1-ABP) pulldown, ratio of active to total MALT1, resting Jurkat T cells
human MALT1B E795A (from UniProt Q9UDY8 2-824) (enzyme)	5 fold
human MALT1A E316A/E806A (from UniProt Q9UDY8 1-824) (enzyme)	50 fold

Source: US20240238419A1
